Reference: PMC4038064
Read-outs that look alike come from different tables or passages of the source.

How the values were obtained:
[1] = molecular target: Neuropilin-1 domains b1b2 (Nrp1-b1b2); assay: in vitro plate binding assay
[2] = molecular target: Neuropilin-1 domains b1b2 (Nrp1-b1b2); assay: in vitro plate binding assay; remark: listed apart in the source
[3] = molecular target: Neuropilin-1 domains b1b2 (Nrp1-b1b2); assay: ITC

Sema3E.3 peptide (Sema3E, furin cleavage site 3)
IC50 [1]: 0.76 µM

Sema3A.2 peptide (Sema3A, furin cleavage site 2)
IC50 [1]: 34 µM

B1: Sema3F C-terminal peptide, wild type (S3F-RR) (peptide)
peptide: WDQKKPRNRR
IC50 [2]: 11 µM
Kd [3]: 33 µM
dH [3]: -18.5 kcal/mol
stoichiometry N [3]: 1

B2: Sema3F C-terminal peptide, C-1 aspartate variant (S3F-DR) (peptide)
peptide: WDQKKPRNDR
IC50 [2]: 28 µM

B3: Sema3F C-terminal peptide, C-1 proline variant (S3F-PR) (peptide)
peptide: WDQKKPRNPR
IC50 [2]: 4.7 µM
Ka [3]: 101000 M⁻¹
Kd [3]: 10 µM
dH [3]: -17 kcal/mol
stoichiometry N [3]: 1
